Consider one molecule from patent publication EP4722254A1.

For this test, the target named is Recombinant Human-FGFR2-His protein (human) (UniProt P21802). The test can be described thus: ELISA, Human-FGFR2-His coated, anti-human Fc-HRP detection.
Sequence of Recombinant Human-FGFR2-His protein (human) (P21802 other isoform, or with tags, fused parts or gaps limits assumed): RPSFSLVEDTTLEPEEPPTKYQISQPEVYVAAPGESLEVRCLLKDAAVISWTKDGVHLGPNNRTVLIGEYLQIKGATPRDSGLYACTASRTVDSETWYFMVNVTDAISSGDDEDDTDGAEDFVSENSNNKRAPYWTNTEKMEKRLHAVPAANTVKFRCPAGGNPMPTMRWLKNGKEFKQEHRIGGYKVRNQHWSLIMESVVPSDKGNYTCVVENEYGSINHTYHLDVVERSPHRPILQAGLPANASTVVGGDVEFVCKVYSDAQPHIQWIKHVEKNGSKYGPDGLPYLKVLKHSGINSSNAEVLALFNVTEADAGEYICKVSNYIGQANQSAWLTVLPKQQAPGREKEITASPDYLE

B1: anti-FGFR2/PD-1 bispecific antibody c (bispecific antibody, part only; not given: anti-PD-1 constant regions, part only)
heavy, part: EVKLVESGGGLVQPGGSLRLSCAASGFAFSSYDMSWVRQAPGKRLEWVATISGGGRYTYYPDTVKGRFTISRDNAKNSHYLQMNSLRAEDTAVYFCASPYGGYFDVWGQGTLVTVSSGGGGSGGGGSGGGGSQVQLVQSGAEVKKPGSSVKVSCKASGYTFTSYWMHWVRQAPGQGLEWMGAIYPGNSDTDYSGKFKGRVTITADESTSTAYMELSSLRSEDTAVYYCSKFDYWGQGTLVTVSSGGGGSGGGGSGGGGSGGGGSEIVLTQSPATLSLSPGERATLSCRASSSVNYMYWYQQKPGQAPRPWIYLTSNRATGVPARFSGSGSGTDYTLTISSLEPEDFAVYYCQQWSSNPYTFGQGTKLEIKRTV
light, part: EIVLTQSPATLSLSPGERATLSCRASQSISNFLHWYQQKPGQAPRLLIKYASQSISGIPARFSGSGSGTDFTLTISSLEPEDFAVYFCQQSNSWPHTFGQGTKVEIK
In the case of B1, the EC50 (in general, the concentration needed to bring the measured effect to its halfway point) was 0.624 nM.
